Measurements reported in patent publication US20160303217A1 (ENGINEERED ANTIGENS, published 2016).
Numbering of substitutions follows the chain as printed. Numbers in names are those of the source.

B1: A. suis TbpB 27-577 (amino acid 27-577) derived from strain H57, purified recombinant truncated protein (receptor)
chain: SYQDEETKKKTKEELDKLMEPTLGVEAKIPRRNRALFDKEGNRKATPDTTDELSEAQIMAIWNENIDEIPHLKELNDKTTSGLIYHSHDGKQEDKKRNLQYVRSGYVFDESYSEIVKNKNGVPYIFKNGIDGYIYYLGTSPSKELPKGNKVTYKGTWDFTSDVKTSYELSGFSDAGNGKNVAATSISDNVNRDHKVGEKLGDNEVKGVAHSSEFAVDFDNKKLTGSLYRNGYINRNKAQEVTKRYSIEADITGNRFTGKAKAEKAGDPIFTDSNYLEGGFYGPKAEEMAGKFFTNNKSLFAVFAAKSENGETTTERIIDATKIDLTQFNAKELNNFGDASVLIIDGQKIDLAGVNFKNSKTVEINGKTMVAVACCSNLEYMKFGQLWQKEGKQQVKDNSLFLQGERTATDKMPAGGNYKYVGTWDALVSKGTNWIAEADNNRESGYRTEFDVNFSDKKVNGKLFDKGGVNPVFTVDATINGNGFIGSAKTSDSGFALDAGSSQHGNAVFSDIKVNGGFYGPTAGELGGQFHHKSDNGSVGAVFGA
notes: also called AsH57 TbpB; TbpB from Actinobacillus suis
B2: F171A mutant of ApH49 TbpB 20-528 (receptor)
chain: GVSKEEYKDVETAKKEKEQLGELMEPALGYVVKVPVSSFENKKVDISDIEVITNGNLDDVPYKANSSKYNYPDIKTKDSSLQYVRSGYVIDGEHSGSNEKGYVYYKGNSPAKELPVNQLLTYTGSWDFTSNANLNNEEGRPNYLNDDYYTKAIGKRVGLVSGDAKPAKHKYTSQFEVDFATKKMTGKLSDKEKTIYTVNADIRGNRFTGAATASDKNKGKGESYNFFSADSQSLEGGFYGPKAEEMAGKFVANDKSLFAVFSAKHNGSNVDTVRIIDASKIDLTNFSISELNNFGDASVLIIDGKKIKLAGSGFTNKHTIEINGKTMVAVACCSNLEYMKFGQLWQQAEGGKPENNSLFLQGERTATDKMPKGGNYKYIGTWDAQVSKENNWVATADDDRKAGYRTEFDVDFGNKNLSGKLFDKNGVNPVFTVDAKIDGNGFTGKAKTSDAGFALDSGSSRYENVKFNDVAVSGGFYGPTAAELGGQFHHKSENGSVGAVFG
notes: also called F171A mutation in the TbpB from A. pleuropneumoniae strain H49
B3: Y174A mutant of A. pleuropneumoniae TbpB 26-528 derived from strain H87 (receptor)
chain: VNYTDEETQKRKKEELDKLMEPALGYVTKIPVNIPSVRKTEISEIDTVTDESLSLVPNEDKLRTIANENYGSVVTKSGSNTMNFVRSGYTIDVVHYGLRDKGYVYYKGVHPSKELPKGNIIVYQGEWDFTSNADLDAKRPNYNPEFNGAGAGQRVGVTSADAKERTYISKFNIDFSNKKLNGQLLTKTKENQEKLRYTVEANISGNRFRGKATATDKTDPILGKDSEHLEGGLYGPKSEELAGKFVAHDKSLFAVFSGKRGNDVLETVKIIDASKIDLTTFESSELNNFGNANVLIIDGQKIDLAGADFKNRKTVDINGKTMVAIACCSNLEYMKFGQLWQKEGEQTKDNSLFLQGERTATDKIPVGGNYKYVGTWDALVSKGTNWVAEADNNRESGYRSEFDVNFGDKKVSGKLFDKGGIVPVFMINADIKGNGFTGTANTTDTGFALDSGSSQHGNAVFSDIKVNGGFYGPTAGELGGQFHHKSDNGSVGAVFG
B4: Y167A mutant of H. parasuis TbpB 27-577 derived from the Nagasaki strain Hp5 (receptor)
chain: CSGGKGSFDLEDVQPNKTTGVSKEEYKDVETDKKVKEQLGELMEPALGYVVKVPVSQSGVKRTEISNPEAITDEDLNKIPNYEIIKGVAYPNYGELVDKTAAETMKYVRSGYVIDVYHSGTRDKGYVFYKGITPSKELPQGPALTYQGEWDFTSDANLNNEEGRPTALNDDYYTTWIGKRAGLVSGDAKPSKHKYTSQFKVDFATKKMTGKLSDKEKTIYTVNADIRGNRFTGSATASDKDKGKGASYNFFSVDSQSLEGGFYGPKAEEMAGKFVADDKSLFAVFSAKHNASNVNTVRIIDASKIDLTNFSISELTNFGDASVLIIDGKKMELAGSEFTNKHTIDINGKKMVAVACCSNLEYMKFGQLWQQTEGEKQVKDNSLFLQGERTATDKMPKDGNYKYIGTWDAQVSKENNYWVATADDDRKAGYRTEFDVDFGSKNLSGKLFDKNGVNPVFTVNAKIDGNGFTGEAKTSDAGFVLDPGSLRHDNVKFSDVAVSGGFYGPTAAELGGQFRYQSDNGSVGVGAVFGAKQQVKK
notes: also called Y167A TbpB; Y167A mutant TbpB
B5: W176A mutant of H. parasuis TbpB 27-577 derived from the Nagasaki strain Hp5 (receptor)
chain: B4 chain with Y93A, A167Y, W176A
notes: also called W176A mutation in the TbpB from H. parasuis strain HP5
B6: native TbpB N-lobe from Actinobacillus pleuropneumoniae strain H49, fusion protein with N-terminal maltose binding protein and polyhistidine tag (receptor)
chain: CSGGKGSFDLEDVRPNKTTGVSKEEYKDVETAKKEKEQLGELMEPALGYVVKVPVSSFENKKVDISDIEVITNGNLDDVPYKANSSKYNYPDIKTKDSSLQYVRSGYVIDGEHSGSNEKGYVYYKGNSPAKELPVNQLLTYTGSWDFTSNANLNNEEGRPNYLNDDYYTKFIGKRVGLVSGDAKPAKHKYTSQFEVDFATKKMTGKLSDKEKTIYTVNADIRGNRFTGAATASDKNKGKGESYNFFSADSQSLEGGFYGPKAEEMAGKFVANDKSLFAVF
notes: also called Mbp-TbpB N-lobe; native h49 TbpB N-lobe; not shown: N-terminal polyhistidine region of the custom expression vector; TEV (tobacco etch virus) cleavage site
B7: engineered (loop-reduced) TbpB N-lobe from Actinobacillus pleuropneumoniae strain H49, fusion protein with N-terminal maltose binding protein and polyhistidine … (receptor)
chain: GSGVSKEEYKDVETAKKEKEQLGELGELMEPALGYVVKVPVSAGKKVDISDIEVITNGNLDDVPYKANSSKYNYPDIKTKDSSLQYVRSGYVISPDGGYVYYKGNSPAKELPVNQLLTYTGSWDFTSNANLNAARPAGAGKRVGLVSGDAKERKYTSQFEVDFATKKMTGKLSDKEKTIYTVNADIRGNRFTGAATASDKNDPILSADSQSLEGGFYGPKAEEMAGKFVANDKSLFAVFSAKHNGSNV
notes: also called engineered TbpB N-lobe H49; modified N-lobe; not shown: N-terminal polyhistidine region of the custom expression vector; TEV (tobacco etch virus) cleavage site
B8: engineered (loop-reduced) TbpB N-lobe from Actinobacillus pleuropneumoniae strain H87, fusion protein with N-terminal maltose binding protein and polyhistidine … (receptor)
chain: GSKLMEPALGYVTKIPVGPGSEISEIDTVTDESVSGAPGVVNSGYTIDVVHYGLRDKGSVSYKGVHPSKELPKGNIIVYQGEWDFTSNAGAAGRVGVTSADAKERTYISKFNIDFSNKKLNGQLLTKTKENQEKLRYTVEANISGNRFRGKATATDKTDPILGKDSEHLEGGLYGPKSEELAGKFVAHDKSLFAVFSGKRGNDVL
notes: also called engineered TbpB N-lobe H87; not shown: N-terminal polyhistidine region of the custom expression vector; TEV (tobacco etch virus) cleavage site

Legend:
porcine transferrin [1] = target: T1, porcine transferrin (porcine, UniProt P09571 1-696); test: isothermal calorimetry, surface plasmon resonance or biolayer interferometry
T1 construct: also called pTf; porcine Tf
T1 sequence (P09571 whole entry): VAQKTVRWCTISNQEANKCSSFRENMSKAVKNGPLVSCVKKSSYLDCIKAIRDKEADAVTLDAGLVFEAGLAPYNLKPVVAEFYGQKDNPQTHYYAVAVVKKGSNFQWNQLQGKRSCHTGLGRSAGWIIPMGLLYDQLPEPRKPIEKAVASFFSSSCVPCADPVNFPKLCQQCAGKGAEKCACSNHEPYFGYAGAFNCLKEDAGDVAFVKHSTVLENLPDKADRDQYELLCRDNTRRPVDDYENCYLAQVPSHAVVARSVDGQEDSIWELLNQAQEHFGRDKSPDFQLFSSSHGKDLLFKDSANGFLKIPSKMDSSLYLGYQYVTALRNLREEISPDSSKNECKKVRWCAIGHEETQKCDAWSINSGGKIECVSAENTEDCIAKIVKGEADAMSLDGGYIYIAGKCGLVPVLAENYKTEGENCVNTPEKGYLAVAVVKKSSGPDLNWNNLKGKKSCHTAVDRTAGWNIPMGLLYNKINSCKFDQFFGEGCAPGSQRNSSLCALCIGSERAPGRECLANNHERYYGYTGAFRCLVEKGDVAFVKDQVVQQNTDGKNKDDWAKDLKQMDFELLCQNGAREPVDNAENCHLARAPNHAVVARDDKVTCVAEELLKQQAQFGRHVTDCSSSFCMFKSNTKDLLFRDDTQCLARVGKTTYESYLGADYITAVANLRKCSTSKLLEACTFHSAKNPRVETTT

porcine transferrin [2] = target: T1, porcine transferrin; test: solid-phase (dot) binding assay with HRP-conjugated porcine transferrin; also capture on porcine Tf-Sepharose
porcine transferrin [3] = target: T1, porcine transferrin; test: affinity capture from cell lysate on porcine Tf-Sepharose, SDS-PAGE

Binder | fold increase in the affinity constant (Kd) against the native TbpB (porcine transferrin [1]) [fold] | further results
B1 | – | Kd (porcine transferrin [1]): ~0.12 µM
B2 | 100 | –
B3 | 100 | –
B4 | 100 | –
B5 | 100 | –
B6 | – | binding result (porcine transferrin [2]): binds
B7 | – | binding result (porcine transferrin [3]): no binding
B8 | – | binding result (porcine transferrin [3]): no binding
